Assay results published in patent publication US20210108176A1 (IMPERIAL COLLEGE INNOVATIONS, published 2021).

Target: T1, EZH2 (UniProt Q15910 1-746, limits assumed)
T1 construct: Endogenous protein immunoprecipitated from U266 cell chromatin; also called polycomb complex methyl-transferase EZH2
Test: ChIP-reChIP qPCR in U266 cells (IP against RARalpha, then EZH2)
Method: Chromatin immunoprecipitation (ChIP) combined with real-time quantitative polymerase chain reaction (ChIP-RQ-PCR) was performed for anti-H3K4me3, anti-H3K27me3, anti-RNA polymerase II CTD phospho Ser2, anti-RNA polymerase II CTD phospho Ser5, anti-EZH2, anti-RARα and control IgG as previously described²⁵. For Re-ChIP assays, the wash and chromatin elution steps of the first IP were performed with protease inhibitor-containing buffers and the first elution was performed by incubating the magnetic beads in 10 mM DTT/TE for 30 min at 37° C. The eluate of the first IP was diluted at least 20× in ChIP dilution buffer, followed by a second IP according to the same protocol as above. Expression of immunoprecipitated DNA was calculated, either relative to input DNA or DNA immunoprecipitated by control IgG antibody, using the ΔΔCT method.

T1 sequence (Q15910 whole entry): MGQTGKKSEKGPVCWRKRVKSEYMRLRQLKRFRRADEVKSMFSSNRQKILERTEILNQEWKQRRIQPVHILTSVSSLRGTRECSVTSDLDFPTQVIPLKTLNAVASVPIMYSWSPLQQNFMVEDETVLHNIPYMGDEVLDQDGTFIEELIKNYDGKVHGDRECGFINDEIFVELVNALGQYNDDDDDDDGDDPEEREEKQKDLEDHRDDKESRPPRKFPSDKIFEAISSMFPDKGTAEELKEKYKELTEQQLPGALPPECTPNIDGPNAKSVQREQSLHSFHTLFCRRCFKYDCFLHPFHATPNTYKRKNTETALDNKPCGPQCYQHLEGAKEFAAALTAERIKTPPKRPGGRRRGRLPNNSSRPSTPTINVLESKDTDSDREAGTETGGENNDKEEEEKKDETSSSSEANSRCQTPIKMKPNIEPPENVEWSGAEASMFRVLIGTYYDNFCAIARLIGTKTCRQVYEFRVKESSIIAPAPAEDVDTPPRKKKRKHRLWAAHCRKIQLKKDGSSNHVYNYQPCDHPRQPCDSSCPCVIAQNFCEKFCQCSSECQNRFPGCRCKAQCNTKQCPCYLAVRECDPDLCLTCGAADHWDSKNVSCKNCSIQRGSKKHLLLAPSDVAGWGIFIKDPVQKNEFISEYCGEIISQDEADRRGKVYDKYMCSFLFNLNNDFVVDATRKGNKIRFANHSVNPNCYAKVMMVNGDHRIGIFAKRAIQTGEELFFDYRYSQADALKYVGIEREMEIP

B1: RARalpha (receptor, UniProt P10276 1-462, looked up)
chain: MASNSSSCPTPGGGHLNGYPVPPYAFFFPPMLGGLSPPGALTTLQHQLPVSGYSTPSPATIETQSSSSEEIVPSPPSPPPLPRIYKPCFVCQDKSSGYHYGVSACEGCKGFFRRSIQKNMVYTCHRDKNCIINKVTRNRCQYCRLQKCFEVGMSKESVRNDRNKKKKEVPKPECSESYTLTPEVGELIEKVRKAHQETFPALCQLGKYTTNNSSEQRVSLDIDLWDKFSELSTKCIIKTVEFAKQLPGFTTLTIADQITLLKAACLDILILRICTRYTPEQDTMTFSDGLTLNRTQMHNAGFGPLTDLVFAFANQLLPLEMDDAETGLLSAICLICGDRQDLEQPDRVDMLQEPLLEALKVYVRKRRPSRPHMFPKMLMKITDLRSISAKGAERVITLKMEIPGSMPPLIQEMLENSEGLDTLSGQPGGGGRDGGGLAPPPGSCSPSLSPSSNRSSPATHSP
notes: Endogenous protein immunoprecipitated from U266 cell chromatin
- binding result: binds
